{
  "source": "patent US7645735B2",
  "about": "“Anti-angiogenic peptides for treating or preventing endometriosis” (Children's Medical Center Corporation, priority 2003, dated 2010)",
  "molecules": {"B1": {"name": "human endostatin (EntreMed): recombinant human endostatin, gift from EntreMed Corporation (protein, listed as Homo sapiens)", "chain": "HSHRDFQPVLHLVALNSPLSGGMRGIRGADFQCFQQARAVGLAGTFRAFLSSRLQDLYSIVRRADRAAVPIVNLKDELLFPSWEALFSGSEGPLKPGARIFSFNGKDVLTHPTWPQKSVWHGSDPNGRRLTESYCETWRTEAPSATGQAYSLLGGRLLGQSAASCHHAYIVLCIENSFMTASK"}},
  "key": {"[1]": {"system": "human microvascular endothelial cells (HMVECs)", "assay": "VEGF-induced migration of HMVECs, modified Boyden chamber", "format": "cell-based", "settings": "100 ng/ml, VEGF 5 ng/ml", "method": "Endostatin peptides were tested for anti-endothelial cell migration activity. Inhibition of VEGF-induced migration of human microvascular endothelial cells (HMVECs) was determined using several doses of endostatin peptides (FIG. 5). Human peptides were used because the cells were of human origin and the migration response of the HMVECs was assayed using a modified Boyden chamber. VEGF (5 ng/ml) was used a chemotactic agent and cells were challenged with human endostatin (Entremed; EM-ES), human Fc-Endostatin (nFcES), human P1 (hP1), human P2 (hP2), human P6 (hP6), and human P1-H1/3A (hP1-H1/3A). Total migration per membrane was quantified from the capture images using Scion Image Software (National Institutes of Health) and the unpaired Student T test was used for statistical analysis. […] No significant differences in inhibition between these concentrations were observed. At higher and lower concentrations less or no inhibition was observed. At 500 ng/ml of hP1 no inhibition was observed. Thus, similar to full-length endostatin, there is a U-shaped response to hP1 inhibition of EC migration.\nThe motility response of HMVEC-d cells was assayed using a modified Boyden chamber. Cells were plated in T75-cm2 flasks at 0.5×10^6 cells per flask and allowed to grow for 48 h (˜70% confluent) prior to the migration assay. To facilitate cell adhesion, the upper membrane of a transwell ([…]; Costar) was coated with fibronectin ([…]; Becton Dickinson, Bedford, Mass.) for 1 h at 37° C. Coated membranes were rinsed with PBS and allowed to air dry immediately before use. Cells were detached by trypsinization, treated with trypsinization neutralization solution (Clonetics), and resuspended at a final concentration of 1×10^6 cells/ml in serum-free endothelial basal medium (EBM; Clonetics) containing 0.1% BSA. Cells (200,000 in 0.2 ml) were then treated with 0.2 ml of EBM/BSA containing endostatin or peptides at the indicated concentrations. Cells were incubated for 20 min. at 37° C. with occasional shaking. Cells (50,000 in 100 μl) were added to the upper chamber of the transwell. EBM or EBM supplemented with VEGF (5 ng/ml) was added to the lower chamber and cells were allowed to migrate toward the bottom chamber for 4 h in a humidified incubator containing 5% CO2. Transwell filters were rinsed once with PBS and fixed and stained using a Diff-Quik staining kit (Baxter) following the manufacturer's protocol. Non-migrated cells were removed from the upper chamber with a cotton swab. Stained filters were cut out of the chamber and mounted onto slides using Permount (Fisher). The number of migrated cells was measured using microscopy (three fields from each membrane were captured using a 40× objective), and images were captured with a CCD camera using SPOT software. Total migration per membrane was quantified from the captured images using Scion Image software (National Institutes of Health). All experiments were run in triplicate. The unpaired Student t-test was used for statistical analysis."}, "Female SCID mice": {"system": "Female SCID mice", "assay": "Fertility, pregnancy and offspring in tumor-bearing female SCID mice", "quoted_text": "Female SCID mice were injected with human pancreatic tumor cells subcutaneously. When tumors reached a volume of approximately 100 mm^3 endostatin or placebo treatment was initiated and continued until the end of the study. After three days, females were mated.\nHuman BxPC-3 cells were grown in cells culture as described above. After washing with sterile PBS, cells were trypsinized and briefly re-suspended in RPMI 1640 medium containing 10% fetal calf serum (FCS) and 1% glutamine penicillin streptomycin (GPS) solution. After centrifuging, the cell concentration was adjusted to 50×10^6 cells/ml in additive-free RPMI 1640 medium and kept on ice. Female SCID mice were shaved on the dorsal side and the naked skin was cleaned with ethanol prior to injection. A suspension of 5×10^6 cells/ml in 100 μl was then injected subcutaneously into the dorsa of these mice at about one centimetre left of the midline.\nMice were weighed and tumors were measured every 7 days in two diameters using a dial-caliper. Tumor volumes were calculated using the formula a^2×b×0.52, while a being the shorter and b being the longer diameter. When tumors had reached a volume of approximately 100 mm^2 mice were divided into four groups.\nDuring the first experiment, one group received endostatin (20 mg/kg; n=8) or vehicle (n=8) via subcutaneous osmotic pumps (Durect Corp., Cupertino, Calif.). Pumps were inserted via a small incision and placed into a subcutaneous pocket on the right lateral aspect of the animals' dorsa. The pumps were changed every week for a total of four weeks.\nThe other group received daily subcutaneous injections of endostatin (100 mg/kg, n=5) or vehicle (n=5) for the same period.\nDuring a second study we repeated the experiment with endostatin in subcutaneous pumps. The other group in this series received the murine N-terminal fragment of endostatin (mP-1) at a dose of 2.5 mg/kg twice daily or PBS (n=5 each).\nThree days after initiation of treatment female mice were added to a cage containing a male SCID mouse in a 1:1 ratio. All males had been housed separately three days prior to encountering the females and female bedding had been added to the male cages to enhance the males' libido.\nFor the following seven days every female was checked for a vaginal mucous plug as a sign of mating. These exams were performed during the early morning hours to optimize the results. Once a mucous plug had been noticed, mating was considered ‘successful’, and the female was not further examined in order to minimize iatrogenic stress.\nOver the course of pregnancy the following parameters were assessed: ‘Mating Time’ describing the time between male encounter and the occurrence of a mucous plug; ‘Pregnancy Rate’, measured by ultrasound 15 days after the mucous plug was observed. The number of viable fetus was counted during this procedure; ‘Length of Pregnancy’, as measured from the time of successful mating to delivery; ‘Number of Total and Viable Litter’, counted on the day of birth; ‘Weight of Individual Pup’, by weighing the entire litter on the day of birth and calculating the mean weight."}, "[2]": {"system": "human umbilical vein endothelial cells (HUVEC)", "assay": "VEGF stimulated migration of HUVEC, modified Boyden chambers", "format": "cell-based", "settings": "FIG. 13", "method": "Cell migration assays were performed using modified Boyden chambers (6.5-mm diameter, 10-μm thickness, 8-μm pores, Transwell-Costar Corp., Cambridge, Mass.) coated with 10 μg/ml fibronectin in PBS overnight at 4° C. and rinsed with PBS. Subconfluent cells were trypsinized (0.01% trypsin/5 mM EDTA), neutralized with trypsin neutralization solution (Cascade Biologics Inc., Portland, Oreg.), washed, and resuspended in endothelial basal medium (EBM; Clonetics) with 0.1% BSA in the presence or absence of human endostatin (40, 200, 1000 ng/ml). In a second experiment we added either 600 ng/ml human endostatin or mP-1 at various doses (60, 200, 600 ng/ml). Cells were maintained in suspension for 30 min, added to the top of each migration chamber and allowed to migrate for 4 h in the presence or absence of VEGF (5 ng/ml) in lower chamber. Adherent cells were fixed and stained using the Hema-3 Stain System (Fisher Diagnostics, Middletown, Va.), following manufacturer's instructions. Non-migratory cells were removed with a cotton swab, and the number of migratory cells per membrane was captured using bright field microscopy connected to a Spot digital camera (Diagnostic Instruments, Sterling Heights, Mich.). Migrated cells from the captured image were counted using NIH image software. […]"}},
  "note": "Several values for one entry are separate records, joined by “and”; a condition that tells them apart may be missing. Equal values may be shown once.",
  "data": [
    {"molecule": "B1", "values": [
      {"measurement": "inhibition of EC migration", "setting": "[1]", "value": "not at 100 ng/ml"},
      {"measurement": "mean length of pregnancy", "setting": "Female SCID mice; endostatin pumps, two experiments", "value": "20.6 ± 1.2 days and 20.75 ± 2 days"},
      {"measurement": "pregnancy rate with live births", "setting": "Female SCID mice; injection group", "value": 60, "unit": "%"},
      {"measurement": "litter size per delivery", "setting": "Female SCID mice; injection studies, PBS 4.2±2.4", "value": "5±1"},
      {"measurement": "effect on the offspring", "setting": "Female SCID mice; offspring of treated mice", "value": "did not see any negative effect on the offspring"},
      {"measurement": "litter size per delivery", "setting": "Female SCID mice; pump group, PBS 4.6±1.7", "value": "5±1.8"},
      {"measurement": "mean weight of pups on the day of delivery", "setting": "Female SCID mice; pump groups, PBS 1.4", "value": 1.51, "unit": "g"},
      {"measurement": "mating time", "setting": "Female SCID mice; s.c. injections (endostatin 100 mg/kg daily; mP-1 2.5 mg/kg twice daily), PBS 1.9±0.9", "value": "2.8 ± 1.5", "unit": "days"},
      {"measurement": "mating time", "setting": "Female SCID mice; s.c. osmotic pumps (endostatin 20 mg/kg), PBS 2.0±1", "value": "2.6 ± 1.4", "unit": "days"},
      {"measurement": "migration of HUVEC", "setting": "[2]", "value": "inhibit migration"}
    ]}
  ]
}
